Among the data in PMC10066184 are stoichiometry N values, retold here.

The assay concerns the target GltTk_P208R (UniProt Q5JID0). The experiment in a line: cryo-EM structure; single-particle cryo-EM of GltTk_P208R in MSP2N2 nanodiscs (E. coli lipids), 20 mM Tris-HCl pH 8.0, 100 mM KCl, with 300 mM NaCl and 100 uM L-Asp added; C3 symmetry imposed.

Broadly, the stoichiometry N is a count of units in the complex or per binding partner. For the substance “GltTk_P208R (from UniProt Q5JID0 1-430) (natural protein)”, the stoichiometry N was determined as 3.
